± gives the uncertainty stated by the source.
Experiment: self-splicing fitness, log relative to wild type (ln ratio); higher = more splicing; Tetrahymena group I intron in knt gene, E. coli kanamycin selection, DiMSum; sequences stand for … in CUCUCU…GGAGGGAAAAGUUAUCAGGCAUGCACCUGGUAGCUAGUCUUUAAACCAAUAGAUUGCAUCGGUUUAAAAGGCAAGACCGUCAAAUUGCGGGAAAGGGGUCAACAGCCGUUCAGUACCAAGUCUCAGGGGAAACUUUGAGAUGGCCUUGCAAAGGGUAUGGUAAUAAGCUGACGGACAUGGUCCUAACCACGCAGCCAAGUCCUAAGUCAACAGAUCUUCUGUUGAUAUGGAUGCAGUUCACAGACUAAAUGUCGGUCGGGGAAGAUGUAUUCUUCUCAUAAGAUAUAGUCGGACCUCUCCUUAAUGGGAGCUAGCGGAUGAAGUGAUGCAACACUGGAGCCGCUGGGAACUAAUUUGUAUGCGAAAGUAUAUUGAUUAGUUUUGGAGUACUCGUGGUCG
Summary of the method: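 Fitness was computed with DiMSum as the error-weighted combination of replicate fold changes, kanamycin versus none, each normalised to wild type. The library randomised all eight intron nucleotides of the P1ex region, with the intron placed in the knt kanamycin-resistance gene on pET-22b(+) in E. coli BL21(DE3). Six replicate transformations were grown overnight at 37°C or 30°C on LB agar with or without 25 μg/mL kanamycin, plus 100 μg/mL carbenicillin, 50 μM IPTG and 0.2% rhamnose. Pooled colonies were amplicon-sequenced on an Illumina HiSeq 2500.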

| Sequence | self-splicing fitness (ln) (30 °C) | self-splicing fitness (ln) (37 °C) |
| --- | --- | --- |
| UAUGAGCAAUAUUACGGCAA | -2.46 ± 0.38 | -2.15 ± 0.3 |
| UAUGAGCAAUAUUACGGCCA | – | -1.18 ± 0.28 |
| UAUGAGCAAUAUUACGGGGA | -2.94 ± 0.39 | – |
| UAUGAGCAAUAUUACGGUCG | -2.52 ± 0.12 | -1.19 ± 0.12 |
| UAUGAGCAAUAUUACGUCAU | -3.16 ± 0.2 | -2.38 ± 0.23 |
| UAUGAGCAAUAUUACGUGCA | -2.09 ± 0.13 | -2.32 ± 0.15 |
| UAUGAGCAAUAUUACGUUGC | -2.19 ± 0.19 | -2.65 ± 0.23 |
| UAUUAGCAAUAUUACGACAU | -1.63 ± 0.017 | -0.705 ± 0.035 |
| UAUUAGCAAUAUUACGACGG | -0.886 ± 0.35 | 0.0207 ± 0.33 |
| UAUUAGCAAUAUUACGAGCG | -0.705 ± 0.11 | -0.219 ± 0.15 |
| UAUUAGCAAUAUUACGAGUC | -3.35 ± 0.48 | – |
| UAUUAGCAAUAUUACGAUAG | -0.949 ± 0.16 | -0.79 ± 0.17 |
| UAUUAGCAAUAUUACGAUUA | 0.102 ± 0.13 | -0.402 ± 0.12 |
| UAUUAGCAAUAUUACGAUUU | -1.76 ± 0.14 | -0.438 ± 0.12 |
| UAUUAGCAAUAUUACGCACA | -0.485 ± 0.13 | -0.0783 ± 0.23 |
| UAUUAGCAAUAUUACGCGAG | -2.21 ± 0.2 | -0.0781 ± 0.15 |
| UAUUAGCAAUAUUACGCGCA | -0.12 ± 0.13 | 0.163 ± 0.18 |
| UAUUAGCAAUAUUACGCUAG | -2.36 ± 0.19 | -0.845 ± 0.15 |
| UAUUAGCAAUAUUACGCUAU | – | -2.14 ± 0.29 |
| UAUUAGCAAUAUUACGCUUG | -0.91 ± 0.11 | -0.336 ± 0.16 |
| UAUUAGCAAUAUUACGGCGU | -1.24 ± 0.18 | -0.989 ± 0.18 |
| UAUUAGCAAUAUUACGGGAU | – | -2.61 ± 0.41 |
| UAUUAGCAAUAUUACGGGUA | -0.742 ± 0.12 | -0.599 ± 0.11 |
| UAUUAGCAAUAUUACGGUCG | -0.442 ± 0.13 | 0.383 ± 0.23 |
| UAUUAGCAAUAUUACGGUGG | -2.71 ± 0.28 | -1.22 ± 0.2 |

| Sequence | self-splicing fitness (ln) (30 °C) | self-splicing fitness (ln) (37 °C) |
| --- | --- | --- |
| UAUUAGCAAUAUUACGUACC | -3.37 ± 0.37 | -1.26 ± 0.35 |
| UAUUAGCAAUAUUACGUAGA | -2.62 ± 0.19 | -1.38 ± 0.19 |
| UAUUAGCAAUAUUACGUAUU | -3.62 ± 0.17 | -1.25 ± 0.14 |
| UAUUAGCAAUAUUACGUCCA | -0.691 ± 0.11 | -0.00937 ± 0.15 |
| UAUUAGCAAUAUUACGUCUG | 0.0275 ± 0.14 | -0.652 ± 0.1 |
| UAUUAGCAAUAUUACGUGAG | -1.55 ± 0.094 | 0.0296 ± 0.13 |
| UAUUAGCAAUAUUACGUUAG | -2.33 ± 0.18 | -1.62 ± 0.17 |
| UAUUAGCAAUAUUACGUUUC | -3.79 ± 0.28 | -2.98 ± 0.34 |
| UCAAAGCAAUAUUACGAAGA | -2.21 ± 0.18 | -1.02 ± 0.13 |
| UCAAAGCAAUAUUACGACGU | -0.985 ± 0.063 | 0.289 ± 0.069 |
| UCAAAGCAAUAUUACGAUGG | -1.91 ± 0.1 | 0.127 ± 0.11 |
| UCAAAGCAAUAUUACGAUUU | -3.58 ± 0.24 | -2.3 ± 0.22 |
| UCAAAGCAAUAUUACGCACC | – | -0.644 ± 0.36 |
| UCAAAGCAAUAUUACGCGUC | -3.15 ± 0.14 | -2.89 ± 0.18 |
| UCAAAGCAAUAUUACGCGUU | -3.65 ± 0.18 | -3.64 ± 0.29 |
| UCAAAGCAAUAUUACGCUGU | -3.7 ± 0.21 | -2.82 ± 0.18 |
| UCAAAGCAAUAUUACGGCAC | -3.33 ± 0.38 | -1.68 ± 0.35 |
| UCAAAGCAAUAUUACGGGAG | -4.12 ± 0.3 | -2.5 ± 0.19 |
| UCAAAGCAAUAUUACGGGCC | -3.12 ± 0.4 | – |
| UCAAAGCAAUAUUACGGUAA | -2.48 ± 0.16 | -0.268 ± 0.13 |
| UCAAAGCAAUAUUACGGUAG | -1.54 ± 0.088 | -1.19 ± 0.11 |
| UCAAAGCAAUAUUACGGUGC | -3.92 ± 0.42 | -1.94 ± 0.39 |
| UCAAAGCAAUAUUACGUAUC | -3.73 ± 0.23 | -2.17 ± 0.19 |
| UCAAAGCAAUAUUACGUAUG | -2.44 ± 0.12 | -2.05 ± 0.15 |
| UCAAAGCAAUAUUACGUCGC | -3.36 ± 0.18 | -2.43 ± 0.25 |

| Sequence | self-splicing fitness (ln) (30 °C) | self-splicing fitness (ln) (37 °C) |
| --- | --- | --- |
| UCAAAGCAAUAUUACGUCGU | -2.23 ± 0.11 | -1.28 ± 0.11 |
| UCAAAGCAAUAUUACGUCUC | -4.01 ± 0.36 | -1.5 ± 0.19 |
| UCAAAGCAAUAUUACGUGGG | -2.85 ± 0.098 | -2.17 ± 0.12 |
| UCAAAGCAAUAUUACGUUCC | -2.89 ± 0.38 | – |
| UCACAGCAAUAUUACGAAAA | -3 ± 0.31 | -1.27 ± 0.17 |
| UCACAGCAAUAUUACGAAGU | -2.55 ± 0.22 | -3.34 ± 0.31 |
| UCACAGCAAUAUUACGACGA | -0.431 ± 0.071 | -0.228 ± 0.073 |
| UCACAGCAAUAUUACGAUGC | -3.33 ± 0.17 | -1.26 ± 0.13 |
| UCACAGCAAUAUUACGAUGG | -1.52 ± 0.06 | -0.512 ± 0.081 |
| UCACAGCAAUAUUACGCGCU | -3.85 ± 0.21 | -1.78 ± 0.16 |
| UCACAGCAAUAUUACGCUAG | -2.91 ± 0.13 | -1.49 ± 0.12 |
| UCACAGCAAUAUUACGCUCC | -2.21 ± 0.27 | -1.51 ± 0.37 |
| UCACAGCAAUAUUACGCUUA | -1.66 ± 0.15 | -0.902 ± 0.12 |
| UCACAGCAAUAUUACGGAUU | -4.45 ± 0.13 | -2.38 ± 0.096 |
| UCACAGCAAUAUUACGGCGC | -2.08 ± 0.1 | -1.02 ± 0.12 |
| UCACAGCAAUAUUACGGGUC | -3.67 ± 0.16 | -2.79 ± 0.14 |
| UCACAGCAAUAUUACGGUGA | -3.99 ± 0.33 | -2.77 ± 0.21 |
| UCACAGCAAUAUUACGGUGG | -3.45 ± 0.14 | -2.71 ± 0.18 |
| UCACAGCAAUAUUACGGUUC | -2.91 ± 0.11 | -2.7 ± 0.19 |
| UCACAGCAAUAUUACGGUUG | -1.41 ± 0.087 | -0.981 ± 0.11 |
| UCACAGCAAUAUUACGUAAG | -1.98 ± 0.083 | -1.33 ± 0.1 |
| UCACAGCAAUAUUACGUACC | -2.45 ± 0.23 | -2.37 ± 0.23 |
| UCACAGCAAUAUUACGUGGG | -3.34 ± 0.12 | -2.68 ± 0.12 |
| UCACAGCAAUAUUACGUGUU | -3.9 ± 0.13 | -2.46 ± 0.11 |
| UCACAGCAAUAUUACGUUCA | -0.499 ± 0.074 | -0.438 ± 0.078 |

| Sequence | self-splicing fitness (ln) (30 °C) | self-splicing fitness (ln) (37 °C) |
| --- | --- | --- |
| UCACAGCAAUAUUACGUUGC | -4.42 ± 0.23 | -2.95 ± 0.23 |
| UCACAGCAAUAUUACGUUGU | -4.29 ± 0.18 | -2.14 ± 0.12 |
| UCAGAGCAAUAUUACGAAAA | – | -2.13 ± 0.48 |
| UCAGAGCAAUAUUACGACCU | -2.87 ± 0.36 | – |
| UCAGAGCAAUAUUACGAGCG | -4.27 ± 0.36 | -1.23 ± 0.14 |
| UCAGAGCAAUAUUACGAGGC | -1.74 ± 0.43 | – |
| UCAGAGCAAUAUUACGAUGA | -0.825 ± 0.2 | 0.109 ± 0.21 |
| UCAGAGCAAUAUUACGAUUG | -4 ± 0.37 | -2.41 ± 0.24 |
| UCAGAGCAAUAUUACGCAAC | -3.8 ± 0.48 | -1.91 ± 0.29 |
| UCAGAGCAAUAUUACGCACU | -2.95 ± 0.44 | -2.62 ± 0.48 |
| UCAGAGCAAUAUUACGCGCA | -1.19 ± 0.2 | -1.69 ± 0.29 |
| UCAGAGCAAUAUUACGCGGG | -2.22 ± 0.14 | -1.99 ± 0.23 |
| UCAGAGCAAUAUUACGCGUC | -2.62 ± 0.18 | – |
| UCAGAGCAAUAUUACGCUUU | -2.7 ± 0.32 | -2.84 ± 0.48 |
| UCAGAGCAAUAUUACGGCUU | -3.38 ± 0.34 | -2.19 ± 0.35 |
| UCAGAGCAAUAUUACGGGAU | -3.39 ± 0.47 | -2.58 ± 0.48 |
| UCAGAGCAAUAUUACGGGGA | -1.48 ± 0.11 | -1.1 ± 0.13 |
| UCAGAGCAAUAUUACGGGUG | -3.2 ± 0.2 | -1.46 ± 0.14 |
| UCAGAGCAAUAUUACGGUAC | -2.06 ± 0.3 | – |
| UCAGAGCAAUAUUACGGUCC | -2.18 ± 0.24 | – |
| UCAGAGCAAUAUUACGGUGA | -0.792 ± 0.084 | -0.193 ± 0.1 |
| UCAGAGCAAUAUUACGUACC | -3.69 ± 0.25 | -1.59 ± 0.37 |
| UCAGAGCAAUAUUACGUAUC | -2.86 ± 0.36 | -1.41 ± 0.31 |
| UCAGAGCAAUAUUACGUCCG | -2.17 ± 0.2 | -1.14 ± 0.25 |
